As a reminder, the EC50 is the concentration needed to bring the measured effect to its halfway point.

In this assay the target is Neonatal Fc receptor (FcRn) on CHO-FcRnGPI cells. Kind of assay: flow cytometry on CHO-FcRnGPI cells, pH 6.4.
Chain of Neonatal Fc receptor (FcRn) on CHO-FcRnGPI cells (P55899 24-297, chain 1 of 2): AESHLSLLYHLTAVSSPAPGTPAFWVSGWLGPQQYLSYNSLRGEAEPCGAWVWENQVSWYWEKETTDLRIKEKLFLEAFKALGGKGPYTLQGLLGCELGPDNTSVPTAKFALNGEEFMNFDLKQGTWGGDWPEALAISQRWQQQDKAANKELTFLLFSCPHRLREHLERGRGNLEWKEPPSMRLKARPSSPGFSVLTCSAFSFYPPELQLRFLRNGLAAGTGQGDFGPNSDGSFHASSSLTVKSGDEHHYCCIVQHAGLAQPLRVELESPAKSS
Chain of Neonatal Fc receptor (FcRn) on CHO-FcRnGPI cells (P61769 21-119, chain 2 of 2, further chain): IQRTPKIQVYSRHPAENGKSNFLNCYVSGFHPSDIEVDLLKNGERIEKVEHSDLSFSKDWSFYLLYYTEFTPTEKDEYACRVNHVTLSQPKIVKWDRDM

In turn, Control mAb (antibody) showed an EC50 of 50.4 nM.
